Residues, ends and D or L forms follow the SMILES beside them. *: point of attachment. Cbz = O=C(OCc1ccccc1)*
What was measured:
MCF-7 cells [1] = assay: FITC cholestosome (myristate/palmitate) uptake in MCF-7 cells, fluorescent imaging; type: cell-based, human
Protocol: In this experiment, 22 ug of FITC formulation was placed on MCF-7 cells, Fluorescent imaging was performed over time, with images taken at 2, 4, 8 and 24 hours.

[2] = Insulin solubility and integrity versus pH (HPLC); type: physicochemical
Protocol: Many preparations of cholestosome insulin have been made. […] Accordingly, the solubility limits of Insulin were empirically tested at pH 3.5, 6, 7 and 8. Data on the […] of each formulation are plotted by pH of the insulin solution are plotted at two different ionic strengths of PBS buffer in FIG. 9.
The maximum concentration at each tested pH was applied to the following: Stock solutions for each pH and ionic strength combination are prepared. The empirically determined maximum concentration of Human Recombinant Insulin (SAFC Biosciences and. ProSpec) was added to the stock solution. These stock solutions were then readjusted to the desired pH using either 1M HCl or 1M NaOH as needed 5.0 ml of stock solution was heated to 55° C. and used as the aqueous component in preparations.

[3] = rats, chitosan nanoparticles; cited from earlier work
[4] = Temperature stability of insulin; type: physicochemical
Protocol: Once there is the addition of the aqueous molecule or construct, the mixture is sonicated until there is a cloudy solution formed, thereby minimizing waste from un-dissolved esters, with sonication providing energy for unilamellar vesicle formation. The aqueous component is also maintained at the target temperature prior to its addition, and as stated previously for most peptides, proteins and genes, the highest temperature that can be tolerated is only about 45-50° C.
On the basis of these finding and considering the stability of the proteins and peptides being formulated, including insulin by way of example, the operating temperature of encapsulation procedures was kept,between 40 and 55 degrees centigrade. […] By way of example, optimal insulin preparation was at 37-55 degrees centigrade.

[5] = type: in vivo; settings: rats
Protocol: These experiments were conducted to evaluate the comparative plasma and tissue to plasma ratios of insulin between a cholesterol-encapsulated insulin formulation (cholestosome-insulin) administered by oral gavage and by subcutaneous injection, both compared with the same insulin administered subcutaneously (s.c.) In healthy female Wistar rats.
This study was designed for comparison of insulin bioavailability from the formulations administered, which is defined by the Area under the curve (AUC) calculated as the ratio of Oral to […] over 24 hours following the dosing of the formulation,
Sixteen healthy female Wistar rats ranging from 246.5 to 292.8 g in body weight were distributed into three study groups. Two 6-rat cohorts were dosed with cholestosome insulin oral and SC injection and the remaining 4 rats were given subcutaneous regular insulin as controls. Each rat was dosed with 1.0 ml/animal of a solution identified by Sponsor with cage number and rat number only. Two groups of female Wistar rats were fasted, ranging in duration from 3 hr prior—to 1 hr post-dosing. Rats had free access to water at all times. […] Rats were monitored daily for mortality and morbidity, including signs of hypoglycemia. […]
Results. […] All AUG values were corrected for actual dose given (subtracting residual returned) and expressed as AUG to a dose of 0.25 units, which was approximately 1 unit/kg of body weight. […]

melanoma = settings: patients with melanoma; cited from earlier work
[6] = Eligen proteinaceous coating and SNAC; cited from earlier work
MCF-7 cells [7] = assay: Pilot study of MG-132 on MCF-7 cells exposed to 1117 insulin-cholestosomes; type: cell-based, human
Protocol: A pilot study was performed whereby […] to MCF -7 cells that were also exposed to 1117 insulin-cholestosomes.

Protocol for Caco-2 cells: Caco-2 intestinal epithelial cells were gown in Dulbecco's Modified Eagle's Media (DMEM) supplemented with 20% fetal bovine serum (heat inactivated), 1 nM sodium pyruvate, 100 U/ml penicillin, 100 μg/ml streptomycin, 292 μg/ml L-Glutamine and 1× MEM non-essential amino acids (Invitrogen, #11140). Cells were cultured in 75 cm^2 flasks and incubated in a 37° C. and 5% CO2 environment until 80-90% confluent. The Biocoat HTS Caco-2 assay system (Becton Dickson, #0354802) was used for transport studies. Cells were seeded at a density of 3×10^5 cells/well and differentiated into enterocyte-like cells using, the manufacturer's protocol. This system used a special fibrillar collagen insert and a serum free differentiation medium enhanced with butyric acid, hormones, growth factors and metabolites to establish a differentiated monolayer in 3 days instead of the 21 days that is normally required for this process. This involved incubation of the cells with a DMEM based media containing 10% FBS for 48 hours at 37° C., 5% CO2 after seeding to establish a growth phase. The media was then replaced by the defined differentiation media and incubated for another 48 hours. At this point the Caco-2 cells are ready for further studies.
The differentiated Caco-2 cells were used for the production of Chylomicrons using the method of Luchoomun and Hussain-1999 (21). This method uses supplementation with oleic acid (OA) and taurocholate (TC) at a 1.6:1.0 mM ratio to achieve chylomicrons production. The OA:TC solution was made up in the DMEM based cell growth media used in the BIOCOAT differentiation protocol by adding OA to a 10 mM TC solution and incubated at 37° C. until clear. This was then 0.2 u filtered and used immediately for the transport studies. Treatments plus OA:TC were added in a 450 ul volume to the apical side of the well and incubated for 24 hours for transport studies and chylomicrons production. PBS plus lingind glucose was added in a 1ml volume to the basolateral side. […]

Which “uptake / fluorescence, encapsulated FITC and FITC alone” value (MCF-7 cells [1]) does the source give for Fluorescein Isothiocyanate [FITC] here?
The value was “uptake of FITC itself into MCF-7 cells”.

Which results are given for “FITC-insulin: FITC labeled regular insulin purchased commercially, unencapsulated”?
FITC signal found in the Caco-2 cells (Caco-2 cells; Caco-2): about 1%; FITC signal remaining on the apical side (Caco-2 cells; human, Caco-2, 24 h): ~100%

With “acid protected insulin: insulin protected from acid but not cholestosome encapsulated, Caco-2 control” as the compound, how does the “insulin passing the apical Caco-2 barrier” value (Caco-2 cells; Caco-2) read?
Its value is under 5%.

Which Insulin solubility ([2]; pH 8.0) does the source give for “Insulin: Human Recombinant Insulin made in bacteria” here?
Its Insulin solubility is “high”.

And the “integrity of insulin by HPLC analysis” value ([2]; pH (8) environment)?
The value was “breaks down the insulin A/B Dimer”.

And the “oral bioavailability of insulin” value [3]?
Its value is 17-20%.

What about the “stability across operating temperature range” value ([4]; between 40 and 55 degrees centigrade) of the same compound?
Its value is “stable”.

And the “temperature up to which insulin remains stable” value ([4]; under certain conditions)?
The value was “up to 55 °C”.

And the “signs of drug toxicity or severe hypoglycemia” value [5]?
The value was “No signs of drug toxicity or severe hypoglycemia”.

And the tolerability ([5]; oral and SC (cholestosome), SC (regular insulin))?
The tolerability was “well tolerated”.

For ipilimumab: CTLA-4 antibody, which “overall tumor response (OR) rate” value (melanoma) is on record?
Its value is 11%.

Which oral bioavailability [6] does the source give for “semaglutide: a GLP-1 agonist under development by Novo Nordisk” here?
The oral bioavailability was 2.5%.

Which “oral bioavailability of insulin” value [3] does the source give for Aspart Insulin here?
Its value is 17%.

With `CC(C)C[C@@H](C=O)NC(=O)[C@H](CC(C)C)NC(=O)[C@H](CC(C)C)NC(=O)OCc1ccccc1` [MG-132] (Cbz-Leu-Leu-Leu-aldehyde) as the compound, how does the “effect on exocytosis of insulin-cholestosomes” value (MCF-7 cells [7]) read?
Its value is “caused the likely exocytosis of more intact insulin-cholestosomes”.
